{"source": "the nanobody polyreactivity screen of Harvey et al. (2022)", "data": [{"experiment": "yeast display, Sf9 membrane polyspecificity reagent, FACS + sequencing; frameworks hold sequencing errors", "summary_of_the_method": "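In a synthetic yeast display library (Saccharomyces cerevisiae BJ5465), nanobody expression was induced with galactose for 36–48 hours. FACS gates were set low and high (top ~1%) using anti-HA fluorescence for expression and streptavidin fluorescence for binding of the Sf9 membrane reagent. Each polyreactivity label is drawn from the gate of origin.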", "values": [{"sequence": "QVQLVESGGGLVQAGGSLRLSCAASGSTFYAYTMGWYRQAPGKERELVAAISSGGGTYYADSVKGRFTISRDNAKNTVYLQMNSLKPEDTAVYYCAADPVGYYDPSDYWGQGTQVTVSS", "polyreactivity (PSR sort gate)": "low polyreactivity"}, {"sequence": "QVQLVESGGGLVQAGGSLRLSCADSGFIFPNYGMGSYRQAPGKERELVAYADSVKGRFTISRDNAKNTVYLQMNSLKPEDTAVYYCNADPPYTRWADYWHGGGYWGQGTQVTVSS", "polyreactivity (PSR sort gate)": "low polyreactivity"}, {"sequence": "QVQLVESGGGLVQAGGSLRLTCAASGRIFDGYAMGWYRQPPRKERELVAAISSRGGRTYYADSVKGRFTISRDNAKNTVYLQMNSLKPEDTAVYYCAADDPYGEGDYWGQGTQVTVSS", "polyreactivity (PSR sort gate)": "low polyreactivity"}, {"sequence": "QVQVVESGGGLVQPGGSLRLSCAASGFIFFRYDMGWYRQAPGKERELVAAITDDGSTYADSVKGRFTISRDNAKNNVYLQMNSLKPEDTAVYYCNVQSKSSYWWYGYDYWGQGTQVTVSS", "polyreactivity (PSR sort gate)": "low polyreactivity"}, {"sequence": "QVQLVESGGGLVHAGGSLRLSCAASGRTFYRYGMGWYREARGKERELVAAISNRGGTTYYADSLKGRFTISRDNAKNTVYLQMNSLKPEDTAVYYCAADSVYAEYDSWGQGTQVTVSS", "polyreactivity (PSR sort gate)": "low polyreactivity"}, {"sequence": "QVQLVESGGGLVQAGGSLRLSCAASGRIFCVNAMGWYRQAPGKERELVAAINVSGGITYYADSVKGRFTISRDNAKNTVYLQMKSLKPEDTAVYYCAAVHWTWYTYYGPDYDYWGQGTQVTVSS", "polyreactivity (PSR sort gate)": "low polyreactivity"}, {"sequence": "QVQLVESGGGLVQAGGSLRLSCAASGSTIYHNAMGWYRQAPGKERELVAAISSGGSTHYADSVKGRFTISRDNAKNTVYLQMNSLKPEDTAVYYCATYSSVRQLLWGNGYWGQGTQVTVSS", "polyreactivity (PSR sort gate)": "high polyreactivity"}, {"sequence": "QVQLVESGGGLVQAGGSLRLSCAASGITFWGYVMGWYRQAPGKERELVAAISSSGGRTYYADSVKGRFTISRDNAKNTVYLQMNSLKPEDTAVYYCAAVAWQGTVQFGYWGQGTQVTVSS", "polyreactivity (PSR sort gate)": "high polyreactivity"}, {"sequence": "QVQLVESGGGLVQAGGSLRLSCAASGRILTGYAMGLYRQAPGKEREFVASITGSGAITNYADSVKGRFTITRDNAKNTVYLQMNSLKPEDTAVYYCARGYGWWLGYSSRYDYWGQGTQVTVSS", "polyreactivity (PSR sort gate)": "high polyreactivity"}, {"sequence": "QVQLVESGGGLVQAGGSLRLSCAASGRTFYINAMGWYRQAPGKERELVATISRSGGDTYYADSVKGRFTISRDNAKNTVYIEMTSLKPEDTAVYFCNARQYYYRSGAYASRYLYNYWGQGTQVTVSS", "polyreactivity (PSR sort gate)": "high polyreactivity"}, {"sequence": "QVQLVESGGGLVQAGGSLRLICAASGRTFVKNAMGWSRQAPGKERELVAAIDRGSRTNYADSVKGRFTISRDNAKNTVYLQMNSLKPEDTAVYYCATRYRVRDDQTGTWSIFGYWGQGTQVTVSS", "polyreactivity (PSR sort gate)": "high polyreactivity"}, {"sequence": "QLQLVESGGGLVQAGGSLRLSCAASGSIFNIYAMGWYRQAPGKERELVATITGIADYTYYADSVMGRFTISRDNAKNTVYLQMNSLKPEDTAVYYCAADKYVSEYDYWGQGTQVTVSS", "polyreactivity (PSR sort gate)": "low polyreactivity"}, {"sequence": "QVQLVESGGGLVQAGGSLRLSCAASGRTFRPYAMGWYRPAPGKERELVAAITGGTRTYYADSVKGRFTISRDNAKNTVYLQMNSLKPEDTAVYYCAKGDFFSKHDYWGQGTQVTVSS", "polyreactivity (PSR sort gate)": "low polyreactivity"}, {"sequence": "QVQLVESGGGLVQAGGSLRLICAASGRTFTYYDMGWYRQAPGKERELVAGITARGGSTYADSVKGRFTISRDNAKNTVYLQMNSLKPEDTAVYYCAADLYTSLDSTYDYWGQGTQVTVSS", "polyreactivity (PSR sort gate)": "low polyreactivity"}, {"sequence": "QVQLVESGGGLVQAGGSLRLSCAASGFSFKSYAMGWYRQAPGKERELVAAISRGTSTKYADSVKGRFTISRDNAKNTVYLQMNSLKPEDTAVYNCAALFPTSDLRLRYYRYDYWGQGTQVTVSS", "polyreactivity (PSR sort gate)": "low polyreactivity"}, {"sequence": "QVQLVESGGGLVQAGGSLRLSCAPSGITFRSYAMGWYRQAPGKERELVATISWSGGITYYADSVKGRFTISRDNAKNTVYLQMNSLKPEDTAVYYCATASQSWGRDDYYYWGQGTQVTVSS", "polyreactivity (PSR sort gate)": "low polyreactivity"}, {"sequence": "QVQLVESGGGLVQAGGSLRLSCAASGRIFTHNDMGWYRQAPGKERELVAAITSGGRTTYADSVKGRFTISRDNAKNTVYLQMNSLKPEDTAVYYCNADTCLGSLDFDKRDYWGQGTQVTVSS", "polyreactivity (PSR sort gate)": "low polyreactivity"}, {"sequence": "QVQLVESGGGLVQAGGSLRLSCAASGRTFYRYTMGWYRQAPGKERELVAGISWRGGTTYYADSVKGRFTISRDNAKNTVYLQMNSLKPEDTAVYYCAAKAGYRYGSLAYYKYDYWGQGTQVTVSS", "polyreactivity (PSR sort gate)": "high polyreactivity"}, {"sequence": "QVQLVESGGGLVQAGGSLRLSCAASGFTFRDNAMGWYRQAPGKERELVAAITRGGSTYYADSVKGRFTISRDNAKNTVYLQMNSLKPEDTAVYYCAKALYRREYSSGGYYRFDYWGQGTQVTVSS", "polyreactivity (PSR sort gate)": "high polyreactivity"}, {"sequence": "QVQLVESGGGLVQAGGSLRLSCAASGSIFRGNAMGWYRQAPGKERELVAAISKSGGSTYYADSVKGRFTISRDNAKNTVNLQMNSLKPEDTAVYYCAARTTYLYGMYYWGQGTQVTVSS", "polyreactivity (PSR sort gate)": "low polyreactivity"}, {"sequence": "QVQLVESGGGLVQAGGSLRLSCAASGFIFPTYAMGWYRQAPGKEREFVASITRRGGSTYYADSVKGRFTISRDNAKNTVYLQMNSLKPEDTAVYYCAAGYYGFRGGGSDYWGQGTQVTVSS", "polyreactivity (PSR sort gate)": "high polyreactivity"}, {"sequence": "QVQLVESGGGLVQAGGSLRLSCAAYGRTFTTNAMGWYRQAPGKERELVAAISRLGGSTYYADSVKGRFTISRDNAKNTVYLQMNSLKPEDTAVYYCYAHLWIRGYDYWGQGTQVTVSS", "polyreactivity (PSR sort gate)": "high polyreactivity"}, {"sequence": "QVQLVESGGGLVQAGGSLRLSCAASGRTFVTYAMGWYRQAPGKERELVAAISASGGSTYYADSVKGRFTISRDNAKNTVYLQMNSLKPEDTAVYYCAKTYFLATPYGYWGQGTQVTVSS", "polyreactivity (PSR sort gate)": "low polyreactivity"}, {"sequence": "QVQLVESGGGLVQAGGSLRLSCAASGSIFVTYAMGWYRQAPGKERELVAAINYSGGSTYYADSVKGRFTISRDNAKNTVYLQMNSLKPEDTAVYYCAADERVDQGWIRMDYWGQGTQVTVSS", "polyreactivity (PSR sort gate)": "low polyreactivity"}, {"sequence": "QVQLVESGGGLVQAGGSLRLSCAASGLIFGSYVMGWYRQAPGKERELVAAISSSGGSTYYADSVKVRFTISRDNENNTFYLQMNSLKPEDTAVYYCAARYTYSADKGYYWGQGTQVTVSS", "polyreactivity (PSR sort gate)": "high polyreactivity"}, {"sequence": "QVQLVESGGGLVQAGGSLRLSCAASGRIFFRYTMGWYRQAPGKESELVAAITKRGGTYYADSVKGRFTISRDNAKNTVYLQMNSLKPEDTAVYYCNAVRYGINSYTYRRGYWGQGTQVTVSS", "polyreactivity (PSR sort gate)": "high polyreactivity"}, {"sequence": "QVQLVESGGGLVQAGGSLRLSCAASGSIFYKYMGWYRQAPGKERELVAAITWSGGSTYYADSVKGRFTISRDNAKNTVYLQMNSLKPEDTAVYYCNADDRHSRVGHSWQDAQFDYWGLGTQVTVSS", "polyreactivity (PSR sort gate)": "high polyreactivity"}, {"sequence": "QVQLVESGGGLVQAGGSLRLSCAASGLTFVDNAMGWYRQAPGKERELVAAISYNGGSTYYADSVKGRFTISRDNAKNTVYFQINSLKPEDTAVYYCAADISVGRYVDMDYWGQGTKVTVSS", "polyreactivity (PSR sort gate)": "low polyreactivity"}, {"sequence": "QVQLVESGGGLFQAGGSLRLSCAASGSIFRYYVMGWYRQAPGKEMELVAAISTGDRTNYADSVKGRFTISRDNAKNTVYLQMNSLKPEDTAVYYCNADYVVGWARLEFNYWGQGTQVTVSS", "polyreactivity (PSR sort gate)": "low polyreactivity"}, {"sequence": "QVQLVESGGGLVQAGGSHRLSCAASGSTFSYNTMGWYRQAPGKERELVAAIRSGGSTYYADSVKGRFTISRDNAKNTVYLQMNSLKPEDTAVYYCATDKFHRKVLHWYDYWGQGTQVTVSS", "polyreactivity (PSR sort gate)": "low polyreactivity"}, {"sequence": "QVQLVESGGGLVQAGGSLRLSCAASGSIFPAYALGWYRPAPGKERELVAAITSSCGSTYYADSVKGRFTISRDNAKNTVYLQMNSLKPEDTAVYYCATVYPGDSYVYRFDYWGQGTQVTVSS", "polyreactivity (PSR sort gate)": "low polyreactivity"}, {"sequence": "QVQLVESGGGLVQAGGSLRLSCDASGRIFGMYAMGWYRQSPGKEREFVAAISWRTGSTYYADSVKGRFTISRDNAKNTVYLQMNSLKPEDTAVYYCAAESAAKYGYWRQGTQVTVSS", "polyreactivity (PSR sort gate)": "high polyreactivity"}, {"sequence": "QVQLVESGGGLVQAGGSLRLSCAASGSIFRYNTMGWYRQAPGKERELVAAIRGDGSTNYADSVKGRFTISRANAKNTVYLQMNSLKPEDTAVYYCAVTLRGYRYAYDYWGQGTQVTVSS", "polyreactivity (PSR sort gate)": "low polyreactivity"}, {"sequence": "QVLLVESGGGLVQAGGSLRLSCAATARNFKYNTMGWYRQAPGKERELVAAISISGGSTYYADSVKGRFRISRDNSKNTVYLQMNSLKPEDTAVYYCNADTTYLSDYVTFAYWGQVTQVTVSS", "polyreactivity (PSR sort gate)": "low polyreactivity"}, {"sequence": "QVQLVESGGGLVQAGGSLRISCAPSGLIFKYNAMGWYRQAPGKERDLVADINRSGGSTYYADSVKCRFTISRDNAKNTVYLQMNSLKPEDTEVYYCAAERDSLYWVLFGYWGQGTQVTVSS", "polyreactivity (PSR sort gate)": "low polyreactivity"}, {"sequence": "QVQLVESGGGLVQAGGSLRLSCAASGSTFSWYTMGWYRQAPGKERELVAAISWSGGRTYYADSVKGRFTISRDNAKNTVYLQMNSLKPEDTAVYYCAAYDYWYSLGDYQFYYSGQGTQVTVSS", "polyreactivity (PSR sort gate)": "low polyreactivity"}, {"sequence": "QVQLVESGGGLVQAGGSLRLSCAASGRIFGLNAMGRYRQAPGKERELVAAISERDGSTYYADSVKGRFTISRDNAKNTVYLQMNSLKPEDTAVYYCAAEKPVHYVRGVHYDYWGQGTQVTVSS", "polyreactivity (PSR sort gate)": "low polyreactivity"}, {"sequence": "QVQLVESGGGLVQAGGSLRLSCAASGSTFSYYTMGWSRQAPGKERELVAAISRGGSTNYADSVKGRFTISRDNAKNTVYLQMNSLKPEDTAVYYCAAEPGRTKRYKVRMDYWGQGTQVTVSS", "polyreactivity (PSR sort gate)": "high polyreactivity"}, {"sequence": "QVQLVESGGGLVQAGGSLRLSCAASGRTFYDNTMGWYRQAPGKERELVAAITRNGGSTYYADSVKGRFTISRDNAKNTVYLQMNSLKPEDTAVYYCAVYVAYLYSYYYWGQGTQVSVSS", "polyreactivity (PSR sort gate)": "low polyreactivity"}, {"sequence": "QVQLVESGGGLVQAGGSLRLSCAASGRTFTYNAMGWYRQAPGKERELVAAISSSGGRTYYADSVKGRFTISRDNAKNTVYLQMNSLKPEDTAVYYCNKVKYRFSPPGYDYWGQGTQVTVSS", "polyreactivity (PSR sort gate)": "high polyreactivity"}, {"sequence": "QVQLVESGVGLVQAGGSLRLSCAASGRIFRRYVMGWYRQAPGKEREFVAAITSRGGRTYYADSVKGRFTISRDNAKNTVYLQMNSLKPEDTAVYYCAARYSRSMDYWGQGTQVTVSS", "polyreactivity (PSR sort gate)": "high polyreactivity"}, {"sequence": "QVQLVESGGGLVQAGGSLRLSCAASGSIFAYNAMGWYRQAPGKERELVAGISSRGGRTYYADSVKGRFTISRDNAKNTVYLQKNSLKPEDTAVYNCNKRSVPGTYYPTPVRYKYDYWGQGTQVTVSS", "polyreactivity (PSR sort gate)": "high polyreactivity"}, {"sequence": "QVQLVESGGGLVQAGGSLRLSCAASGITFYSYAMGWYRQAPGKEREFVAAINWRGGNTYYADSVKGRFTISRDNAKNTVYLQMNSLKPEDTAFYYCARDGIYAYWVDPYDYWGQGTQVTVSS", "polyreactivity (PSR sort gate)": "high polyreactivity"}]}]}
